Measurements as given in patent US5663064, “Ribozymes with RNA protein binding site” (University of Vermont).

Key:
R17 coat protein (R17cp) [1] = target: T1, R17 coat protein (R17cp) (bacteriophage R17, UniProt P69170 P69170:1-129); assay: filter; also gel shift; TMS or TMK buffer, 25 or 37 C; Kd said to agree with earlier studies but value not given; conditions: chain copies: 2; hairpin with bulged A
Experimental: The reaction was initiated by adding R17 coat protein at various concentrations (0.01 nM to 1 μM). After at least 20 minutes of incubation at the desired temperature, 450 μl of the reaction mixture was filtered through pre-soaked nitrocellulose filter (Millipore-HAWP 024–0,45 μM). The amount of complex retained by the filter was determined by liquid scintillation counting. The amount of input RNA was determined by spotting a 20 μl aliquot of the reaction mixture on a filter. The fraction bound by the filter was plotted as a function of protein concentration. As previously described (Carey et al., supra; Schneider et al., 1992 J. Mol. Biol. 228, 862), the maximum amount of fraction complexed varied between 40 and 100% depending on the RNA preparation. Results were normalized to 100% of retention at saturation for purposes of calculations and to compare different experiments. […] Dissociation constant (Kd) values were then obtained from a non-linear least-square fit using sigmaplot software (Jandel Scientific). Standard error was calculated from the fit of the observed curve to the theoretical one (reported by the sigmaplot software).
A filter binding assay (Carey, et al., 1983 Biochemistry 22, 2601) is used to confirm the results from gel-shift assay described above. Referring to FIG. 9, the R17cp binds to HpR17 as well as it binds to its genuine binding site (R17bs). […]

R17 coat protein (R17cp) [2] = target: T1, R17 coat protein (R17cp); assay: filter; null mutant negative control; no specific complex in gel shift; conditions: chain copies: 2; hairpin
Experimental: Association constants were determined by filter-binding assays (Carey et al., 1983 Biochemistry 22, 2601). Trace amount of labeled RNA (15–32 fmoles) was heat denatured and renatured in 500 μl of T.M.S buffer (40 mM Tris-HCl pH 8, 12 mM MgCl_2 and 2 mM spermidine) or TMK buffer (40 mM Tris-Acetate pH 8, 10 mM Mg.Acetate, 80 mM KCl). The reaction was initiated by adding R17 coat protein at various concentrations (0.01 nM to 1 μM). After at least 20 minutes of incubation at the desired temperature, 450 μl of the reaction mixture was filtered through pre-soaked nitrocellulose filter (Millipore-HAWP 024–0,45 μM). The amount of complex retained by the filter was determined by liquid scintillation counting. The amount of input RNA was determined by spotting a 20 μl aliquot of the reaction mixture on a filter. The fraction bound by the filter was plotted as a function of protein concentration. As previously described (Carey et al., supra; Schneider et al., 1992 J. Mol. Biol. 228, 862), the maximum amount of fraction complexed varied between 40 and 100% depending on the RNA preparation. Results were normalized to 100% of retention at saturation for purposes of calculations and to compare different experiments. […] Standard error was calculated from the fit of the observed curve to the theoretical one (reported by the sigmaplot software). […]

T1 sequence (P69170 whole entry, one chain of several): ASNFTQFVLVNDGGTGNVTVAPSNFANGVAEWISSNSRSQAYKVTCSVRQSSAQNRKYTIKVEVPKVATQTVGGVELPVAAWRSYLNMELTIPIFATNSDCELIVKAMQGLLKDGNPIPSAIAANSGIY

GAAACAUGAGGAUCACCCAUGUUU (ssRNA) [R17bs]
binding result (R17 coat protein (R17cp) [1]): binds

GAAACAUGGGAUCACCCAUGUUU (ssRNA) [R17deltaA8]
binding result (R17 coat protein (R17cp) [2]): no binding
